Experimental data as given in US20260265403A1 (TJ BIOPHARMA SHANGHAI, published 2026).

T1: Human CD24 (human, UniProt P25063 27-59, limits assumed)
T1 chain (looked up): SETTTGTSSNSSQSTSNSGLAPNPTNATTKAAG

T2: human CD24 on cells (human, UniProt P25063 27-59)
T2 construct: whole, on cells; One molecule for all cell lines; the cell line is named under assay or readout; also called cell surface CD24; cell-based CD24
T2 chain (looked up): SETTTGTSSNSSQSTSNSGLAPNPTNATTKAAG


What was measured:
[1] = target: T1, Human CD24; test: SPR, second 1:1 binding column set
[2] = target: T1, Human CD24; test: affinity ranking; antibody as ligand, Human CD24 as analyte
[3] = target: T1, Human CD24; test: SPR affinity ranking, 1:1 binding, analyte conc. 19.71 nM
[4] = target: T2, human CD24 on cells; test: flow cytometry (GMFI), SKOV3 cells; EC50 table under the graphs [Cont'd) B]
[5] = target: T2, human CD24 on cells; test: flow cytometry (GMFI), MCF-7 cells; EC50 table under the graphs

| Binder | apparent Kd (pooled screen) [1] [nM] | apparent koff (pooled screen) [1] [s⁻¹] | apparent kon (pooled screen) [1] [M⁻¹ s⁻¹] | apparent Kd (pooled screen) [2] [nM] | apparent koff (pooled screen) [2] [s⁻¹] | apparent kon (pooled screen) [2] [M⁻¹ s⁻¹] | apparent Kd (pooled screen) [3] [nM] | apparent koff (pooled screen) [3] [s⁻¹] | apparent kon (pooled screen) [3] [M⁻¹ s⁻¹] | EC50 [4] [µg/mL] | EC50 [5] [µg/mL] | Kd [2] [nM] | koff [2] [s⁻¹] | kon [2] [M⁻¹ s⁻¹] |
| --- | --- | --- | --- | --- | --- | --- | --- | --- | --- | --- | --- | --- | --- | --- |
| VH1 + VL3 (4451H) (antibody, V domains shown, also called Antibody No 0; Parental) VH: QVQLVQSGAEVKKPGASVKVSCKASGYDFTGYHMNWVRQAPGQGLEWMGEINPITSDKTFNQKFKSRVTMTRDTSISTAYMELSRLRSDDTAVYYCARRDYGTSLDYWGQGTTVTVSS VL: DIQLTQSPSFLSASVGDRVTITCRASKSISKYLAWYQQKPGKAPKLLIYAGSTLHSGIPSRFRGSGSGTEFTLTISSLQPEDFATYYCQQHNEYPITFGQGTKLEIK | 25.1 | 0.0192 | 763000 | 23.1 | 0.0158 | 685000 | 172 | 0.0275 | 160000 | 0.44 | 0.39 |  |  |  |
| VH1 + VL2 (humanized 4451) (antibody, V domains shown, IgG expressed in HEK293) VH: QVQLVQSGAEVKKPGASVKVSCKASGYDFTGYHMNWVRQAPGQGLEWMGEINPITSDKTFNQKFKSRVTMTRDTSISTAYMELSRLRSDDTAVYYCARRDYGTSLDYWGQGTTVTVSS VL: DIQLTQSPSFLSASVGDRVTITCRASKSISKYLAWYQQKPGKAPRLLIYAGSTLHSGVPSRFRGSGSGTEFTLTISSLQPEDFATYYCQQHNEYPITFGQGTKLEIK |  |  |  |  |  |  |  |  |  | 0.38 | 0.4 | 13.8 | 0.0239 | 1.74e+06 |
| VH2 + VL2 (humanized 4451) (antibody, V domains shown, IgG expressed in HEK293) VH: QVQLVQSGAEVKKPGASVKVSCKASGYDFTGYHMNWVRQAPGQGLEWIGEINPITSDKTFNQKFKSRVTMTVDTSISTAYMELSRLRSDDTAVYYCARRDYGTSLDYWGQGTTVTVSS VL: DIQLTQSPSFLSASVGDRVTITCRASKSISKYLAWYQQKPGKAPRLLIYAGSTLHSGVPSRFRGSGSGTEFTLTISSLQPEDFATYYCQQHNEYPITFGQGTKLEIK |  |  |  |  |  |  |  |  |  |  | 0.75 | 22 | 0.0234 | 1.06e+06 |
| VH2 + VL3 (humanized 4451) (antibody, V domains shown, IgG expressed in HEK293) VH: QVQLVQSGAEVKKPGASVKVSCKASGYDFTGYHMNWVRQAPGQGLEWIGEINPITSDKTFNQKFKSRVTMTVDTSISTAYMELSRLRSDDTAVYYCARRDYGTSLDYWGQGTTVTVSS VL: DIQLTQSPSFLSASVGDRVTITCRASKSISKYLAWYQQKPGKAPKLLIYAGSTLHSGIPSRFRGSGSGTEFTLTISSLQPEDFATYYCQQHNEYPITFGQGTKLEIK |  |  |  |  |  |  |  |  |  | 0.42 | 0.42 | 19.4 | 0.023 | 1.18e+06 |
| VH2 + VL1 (humanized 4451) (antibody, V domains shown, IgG expressed in HEK293) VH: QVQLVQSGAEVKKPGASVKVSCKASGYDFTGYHMNWVRQAPGQGLEWIGEINPITSDKTFNQKFKSRVTMTVDTSISTAYMELSRLRSDDTAVYYCARRDYGTSLDYWGQGTTVTVSS VL: DIQLTQSPSFLSASVGDRVTITCRASKSISKYLAWYQQKPGKAPKLLIYAGSTLHSGVPSRFSGSGSGTEFTLTISSLQPEDFATYYCQQHNEYPITFGQGTKLEIK |  |  |  |  |  |  |  |  |  | 0.45 | 0.45 | 20.9 | 0.0264 | 1.26e+06 |
| VH1 + VL1 (humanized 4451) (antibody, V domains shown, IgG expressed in HEK293) VH: QVQLVQSGAEVKKPGASVKVSCKASGYDFTGYHMNWVRQAPGQGLEWMGEINPITSDKTFNQKFKSRVTMTRDTSISTAYMELSRLRSDDTAVYYCARRDYGTSLDYWGQGTTVTVSS VL: DIQLTQSPSFLSASVGDRVTITCRASKSISKYLAWYQQKPGKAPKLLIYAGSTLHSGVPSRFSGSGSGTEFTLTISSLQPEDFATYYCQQHNEYPITFGQGTKLEIK |  |  |  |  |  |  |  |  |  | 0.45 | 0.43 | 17.6 | 0.0169 | 958000 |
| VH1 + VL4 (humanized 4451) (antibody, V domains shown, IgG expressed in HEK293) VH: QVQLVQSGAEVKKPGASVKVSCKASGYDFTGYHMNWVRQAPGQGLEWMGEINPITSDKTFNQKFKSRVTMTRDTSISTAYMELSRLRSDDTAVYYCARRDYGTSLDYWGQGTTVTVSS VL: DIQLTQSPSFLSASVGDRVTIYCRASKSISKYLAWYQQKPGKAPRLLIYAGSTLHSGIPSRFRGSGSGTEFTLTISSLQPEDFATYYCQQHNEYPITFGQGTKLEIK |  |  |  |  |  |  |  |  |  | 0.43 | 0.4 | 15 | 0.0241 | 1.61e+06 |

The remaining lines, values ahead:

| apparent Kd (pooled screen) [1] [nM] | apparent koff (pooled screen) [1] [s⁻¹] | apparent kon (pooled screen) [1] [M⁻¹ s⁻¹] | apparent Kd (pooled screen) [2] [nM] | apparent koff (pooled screen) [2] [s⁻¹] | apparent kon (pooled screen) [2] [M⁻¹ s⁻¹] | apparent Kd (pooled screen) [3] [nM] | apparent koff (pooled screen) [3] [s⁻¹] | apparent kon (pooled screen) [3] [M⁻¹ s⁻¹] | EC50 [4] [µg/mL] | EC50 [5] [µg/mL] | Kd [2] [nM] | koff [2] [s⁻¹] | kon [2] [M⁻¹ s⁻¹] | Binder |
| --- | --- | --- | --- | --- | --- | --- | --- | --- | --- | --- | --- | --- | --- | --- |
|  |  |  |  |  |  |  |  |  | 0.52 | 0.52 | 23.7 | 0.0262 | 1.1e+06 | VH3 + VL2 (humanized 4451) (antibody, V domains shown, IgG expressed in HEK293) VH: QVQLVQSGAEVKKPGASVKVSCKASGYDFTGYHMNWVRQAPGQGLEWIGEINPITSDKTFNQKFKSRATMTVDTSISTAYMELSRLRSDDTAVYYCARRDYGTSLDYWGQGTTVTVSS VL: DIQLTQSPSFLSASVGDRVTITCRASKSISKYLAWYQQKPGKAPRLLIYAGSTLHSGVPSRFRGSGSGTEFTLTISSLQPEDFATYYCQQHNEYPITFGQGTKLEIK |
|  |  |  |  |  |  |  |  |  | 0.42 | 0.42 | 23.8 | 0.027 | 1.13e+06 | VH3 + VL3 (humanized 4451) (antibody, V domains shown, IgG expressed in HEK293) VH: QVQLVQSGAEVKKPGASVKVSCKASGYDFTGYHMNWVRQAPGQGLEWIGEINPITSDKTFNQKFKSRATMTVDTSISTAYMELSRLRSDDTAVYYCARRDYGTSLDYWGQGTTVTVSS VL: DIQLTQSPSFLSASVGDRVTITCRASKSISKYLAWYQQKPGKAPKLLIYAGSTLHSGIPSRFRGSGSGTEFTLTISSLQPEDFATYYCQQHNEYPITFGQGTKLEIK |
|  |  |  |  |  |  |  |  |  | 0.42 | 0.41 | 24.8 | 0.0163 | 655000 | VH3 + VL4 (humanized 4451) (antibody, V domains shown, IgG expressed in HEK293) VH: QVQLVQSGAEVKKPGASVKVSCKASGYDFTGYHMNWVRQAPGQGLEWIGEINPITSDKTFNQKFKSRATMTVDTSISTAYMELSRLRSDDTAVYYCARRDYGTSLDYWGQGTTVTVSS VL: DIQLTQSPSFLSASVGDRVTIYCRASKSISKYLAWYQQKPGKAPRLLIYAGSTLHSGIPSRFRGSGSGTEFTLTISSLQPEDFATYYCQQHNEYPITFGQGTKLEIK |
|  |  |  |  |  |  |  |  |  |  | 0.39 | 7.94 | 0.0122 | 1.53e+06 | VH4 + VL4 (humanized 4451) (antibody, V domains shown, IgG expressed in HEK293) VH: QVQLVQSGAEVKKPGASVKVSCKASGYDFTGYHMNWVKQAPGQGLEWIGEINPITSDKTFNQKFKSRATMTVDRSISTAYMELSRLRSDDTAVYYCARRDYGTSLDYWGQGTTVTVSS VL: DIQLTQSPSFLSASVGDRVTIYCRASKSISKYLAWYQQKPGKAPRLLIYAGSTLHSGIPSRFRGSGSGTEFTLTISSLQPEDFATYYCQQHNEYPITFGQGTKLEIK |
|  |  |  |  |  |  |  |  |  | 0.43 | 0.45 | 8.33 | 0.0128 | 1.54e+06 | VH4 + VL1 (humanized 4451) (antibody, V domains shown, IgG expressed in HEK293) VH: QVQLVQSGAEVKKPGASVKVSCKASGYDFTGYHMNWVKQAPGQGLEWIGEINPITSDKTFNQKFKSRATMTVDRSISTAYMELSRLRSDDTAVYYCARRDYGTSLDYWGQGTTVTVSS VL: DIQLTQSPSFLSASVGDRVTITCRASKSISKYLAWYQQKPGKAPKLLIYAGSTLHSGVPSRFSGSGSGTEFTLTISSLQPEDFATYYCQQHNEYPITFGQGTKLEIK |
|  |  |  |  |  |  |  |  |  | 0.43 | 0.44 | 9 | 0.0115 | 1.28e+06 | VH4 + VL2 (humanized 4451) (antibody, V domains shown, IgG expressed in HEK293) VH: QVQLVQSGAEVKKPGASVKVSCKASGYDFTGYHMNWVKQAPGQGLEWIGEINPITSDKTFNQKFKSRATMTVDRSISTAYMELSRLRSDDTAVYYCARRDYGTSLDYWGQGTTVTVSS VL: DIQLTQSPSFLSASVGDRVTITCRASKSISKYLAWYQQKPGKAPRLLIYAGSTLHSGVPSRFRGSGSGTEFTLTISSLQPEDFATYYCQQHNEYPITFGQGTKLEIK |
|  |  |  |  |  |  |  |  |  | 0.44 | 0.45 | 8.84 | 0.0119 | 1.34e+06 | VH4 + VL3 (humanized 4451) (antibody, V domains shown, IgG expressed in HEK293) VH: QVQLVQSGAEVKKPGASVKVSCKASGYDFTGYHMNWVKQAPGQGLEWIGEINPITSDKTFNQKFKSRATMTVDRSISTAYMELSRLRSDDTAVYYCARRDYGTSLDYWGQGTTVTVSS VL: DIQLTQSPSFLSASVGDRVTITCRASKSISKYLAWYQQKPGKAPKLLIYAGSTLHSGIPSRFRGSGSGTEFTLTISSLQPEDFATYYCQQHNEYPITFGQGTKLEIK |
|  |  |  |  |  |  |  |  |  | 0.42 | 0.42 | 26 | 0.0294 | 1.13e+06 | VH3 + VL1 (humanized 4451) (antibody, V domains shown, IgG expressed in HEK293) VH: QVQLVQSGAEVKKPGASVKVSCKASGYDFTGYHMNWVRQAPGQGLEWIGEINPITSDKTFNQKFKSRATMTVDTSISTAYMELSRLRSDDTAVYYCARRDYGTSLDYWGQGTTVTVSS VL: DIQLTQSPSFLSASVGDRVTITCRASKSISKYLAWYQQKPGKAPKLLIYAGSTLHSGVPSRFSGSGSGTEFTLTISSLQPEDFATYYCQQHNEYPITFGQGTKLEIK |
|  |  |  |  |  |  |  |  |  | 0.43 | 0.4 | 3.23 | 0.00937 | 2.9e+06 | VH + VL (4451 parental variable regions, Table 7) (antibody, V domains shown) VH: EVQLQQSGPELVKPGASVKISCKASGYDFTGYHMNWVKQSPEKSLEWIGEINPITSDKTFNQKFKSKATLTVDRSSSTAYMYLKSLTSEDSAVYYCARRDYGTSLDYWGQGTTLTVSS VL: DVQITQSPSYLAASPGETITIYCRASKSISKYLAWYQEKPEKTNRLLIYAGSTLHSGIPSRFRGSGSGKDFTLTVSGLEPEDFAMYYCQQHNEYPITFGAGTKLELK |
